Source: US20210253725A1 (BIONTECH, published 2021)

T1: CD27 protein (His-tagged, Sino Biological Inc. 10039-H08B1) (human, UniProt P26842 20-192)
T1 construct: bought; coated onto ELISA plates; also called human CD27; recombinant protein; not shown: His tag
T1 sequence (looked up): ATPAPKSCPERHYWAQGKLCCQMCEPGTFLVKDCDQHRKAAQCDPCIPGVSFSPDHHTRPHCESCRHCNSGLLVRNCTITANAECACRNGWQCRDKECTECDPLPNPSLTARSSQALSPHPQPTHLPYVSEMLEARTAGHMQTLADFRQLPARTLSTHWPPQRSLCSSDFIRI

T2: CD27 expressed on the cell surface (HT1080_CD27 cells) (human, UniProt P26842 20-260)
T2 construct: whole, on cells; also called K562_CD27
T2 sequence (looked up): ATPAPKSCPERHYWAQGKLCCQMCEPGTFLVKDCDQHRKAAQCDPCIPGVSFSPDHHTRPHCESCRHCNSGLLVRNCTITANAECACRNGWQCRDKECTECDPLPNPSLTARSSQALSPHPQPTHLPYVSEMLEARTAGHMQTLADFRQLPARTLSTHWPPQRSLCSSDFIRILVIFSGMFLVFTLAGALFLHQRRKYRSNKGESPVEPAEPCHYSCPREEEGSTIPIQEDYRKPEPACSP


Experiments:
[1] = target: T1, CD27 protein (His-tagged, Sino …); assay: ELISA on coated His-tagged CD27
[2] = target: T2, CD27 expressed on the cell surface …; assay: cellular binding assay, HT1080_CD27 cells
[3] = target: T2, CD27 expressed on the cell surface …; assay: cell-based or functional assay
Further: test concentration or dose not given here.

Row | Binder | ELISA [abs. corr.] [1] [abs. corr.] | Cellular binding assay [RFU] [2] [RFU] | IL-8, cross-linked by F(ab')2 fragment [abs. corr.] [3] [abs. corr.] | IL-8 [abs. corr.] [3] [abs. corr.]
1 | P018.S.01.A.E06 (antibody, V domains shown, V regions on human Ig constant parts; also called AB27_18) VH: QSLEESGGDLVKPGASLTLTCTASGIDFSSSYYMCWVRQAPGKGLEWIGCIATGGGNTYYATWAKGRFTFSETSSTTVTLQMTSLTVADTATYFCARTYPSMWYFNLWGPGTLVTVSS VL: DVVMTQTPASVSEPVGGTVTIKCQASQSIGFNLAWYQQKPGQPPNLLIYGVSTLTSGVSSRFKGSGSGTQFTLTISDLESADAATYYCQSFYAGSSAFGGGTEVVVK | 3.45 | 291 | 1.4 | 0.448
2 | P018.S.03.A.G02 (antibody, V domains shown, V regions on human Ig constant parts; also called AB27_56) VH: QSLEESGGDLVKPGASLTLTCTASGFSFSSGYDMCWVRQAPGKGLEWIACIYAGSNNNTYYASWAKGRFTISKTSSTTVTLQVASLTAADTATYFCARAAGGYADYAYVMGDYFNFWGPGTLVTVSS VL: AYDMTQTPASVEVAVGGTVTIKCQASEDIYSILAWYQQKPGQRPKGLIYSASTLDSGVPLRFSGSGSGTEFTLTISGVQSDDAATYYCQQGYSSSNVDNVFGGGTEVVVK | 3.44 | 275 | 1.28 | 0.412
3 | P018.S.03.A.F02 (antibody, V domains shown, V regions on human Ig constant parts; also called AB27_53) VH: QSVEESGGRLVTPGTPLTLTCTVSGFSLSSNAMTWVRQAPGKGLEWIGFINTGGSTYYASWAKGRFTISKTSTTVDLKITSPTTEDTATYFCARDVGDSRGYYWGLWGQGTLVTVSS VL: AYDMTQTPASVPAAVGGTVTIKCQASEDIYSLLAWYQQKPGQPPKLLIYDASDLASGVPSRFRGSGSGTDYTLTISGVESADAATYYCQQGYTTYTTVDNIFGGGTEVVVK | 3.46 | 276 | 1.22 | 0.736
4 | P018.S.04.A.D04 (antibody, V domains shown, V regions on human Ig constant parts; also called AB27_72) VH: QSVEESGGRLVTPGTPLTLTCTVSGIDLSSYSMTWVRQAPGKGLEWIGFINTGGRGYYASWAKGRFTISKTSTTVDLKITSPTTEDTATYFCARDAGSSRGYYRDLWGQGTLVTVSS VL: AYDMTQTPASVSAAVGGTVTIKCQASEDIYSLLAWYQQKPGQPPKLLIYDASDLASGVPSRFSGSGSGTDYTLTISGVESADAATYYCQQGYTTSTTVDNIFGGGTEVVVK | 3.7 | 365 | 1.32 | 0.486
5 | P018.S.01.A.G03 (antibody, V domains shown, V regions on human Ig constant parts; also called AB27_22) VH: QSVEESGGRLVTPGTPLTLTCTVSGFSLSSYSMIWVRQAPGKGLEWIGIVYASGSTNYASWAKGRFTISKTSTTVDLKITSPTTEDTATYFCARGDVLYAFDPWGPGTLVTVSS VL: AFELTQTPSSVSAAVGGTVTIKCQASENIYSYLAWYQQKPGQPPKRLIYYASNLASGVSSRFKGSGSGTEFTLTISDLESADAATYYCQYTYSTSPGYIFGGGTEVVVK | 3.5 | 358 | 1.21 | -0.105
6 | P018.S.04.A.B05 (antibody, V domains shown, V regions on human Ig constant parts; also called AB27_68) VH: QSVEESGGRLVTPGTPLTLTCTASGFTLSSFYMSWVRQAPGKGLEWIGFIHGHGNTYYASWAKGRFTISKTSTTVDLKIASPTTEDTATYFCARGGHPNMDLWGQGTLVTISS VL: DIVMTQTPSSVEAAVGGTVTIKCQASQNINNYLAWYQQKPGQPPKLLIYYASTLASGVSSRFKGSGSGTEFTLTISDLESDDAATYYCQCSYYDASIFGAFGGGTEVVVR | 3.5 | 414 | 1.08 | 0.308
7 | P018.S.04.A.G04 (antibody, V domains shown, V regions on human Ig constant parts; also called AB27_78) VH: QSLEESGGRLVTPGTPLTLTCTASGFTISSHHVTWVRQAPGEGLEWIGVIYPSGTTYYASWAKGRFTISRTSTTVDLKMTSLTIEDTATYFCVRDVGYFTLWGQGTLVTVSS VL: AQVLTQTPSPVSAAVGGTVTISCQSSQSVGGNNWLAWYQQKLGQPPKLLIYYASTLASGVPPRFSGSGSGTQFTLTISEVQSDDSATYYCQGYYSDVTNAFGGGTEVVVK | 3.48 | 335 | 1.57 | 0.451
8 | P018.S.02.A.A06 (antibody, V domains shown, V regions on human Ig constant parts; also called AB27_28) VH: QSVEESGGRLVKPDESLTLTCTVSGIDLSTYAMGWVRQAPGKGLEYIGMISTGGSAYYASWAQGRFTISRTSTTVDLKMTSLTTEDTATYFCARLRDPYSYRTYFNLWGPGTLVTVSS VL: ALVMTQTPSSVEAAVGGTVTIKCQASLSISSALAWYQQKPGQRPKLLIYDASNLESGVPSRFKGSGSGAHFTLTVSDLESADAATYYCQGPYDTVNNNSFGGGTEVVVK | 3.13 | 293 | 1.48 | 0.299
9 | P018.S.03.A.A02 (antibody, V domains shown, V regions on human Ig constant parts; also called AB27_41) VH: QSVEESGGRLVTPGTPLTLTCTVSGFSLSSYDMTWVRQAPGEGLEWIGYINTDTTTYYASWAKGRFTISRTSTTVDLEITSPTTEDTATYFCARGNDPIYIDLWGQGTLVTVSS VL: AAVLTQTPSPVSAAVGGTVSISCQSSKSVINNNWLGWYQQKPGQPPKLLISYASTLASGVPSRFSGSGSGTQFTLTISDVQSDDAATYYCAGAYSPDSENAFGGGTEVVLK | 3.44 | 373 | 2.2 | 0.651

The next lines start with the values.

Row | ELISA [abs. corr.] [1] [abs. corr.] | Cellular binding assay [RFU] [2] [RFU] | IL-8, cross-linked by F(ab')2 fragment [abs. corr.] [3] [abs. corr.] | IL-8 [abs. corr.] [3] [abs. corr.] | Binder
10 | 3.45 | 219 | 2.3 | 1.94 | P018.S.09.A.C06 (antibody, V domains shown, V regions on human Ig constant parts; also called AB27_149) VH: QSVEESGGRLVTPGTPLTLTCTVSGFSLSTYAMGWVRQAPGKGLEWIGIIYTGGSTYYASWAEGRFTISKTSTTVDLKITSPTPEDTATYFCTRDLGATYDYFDLWGQGTLVTVSS VL: AYDMTQTPASVEVAVGGTVTIKCQASQSISTALAWYQQKPGQRPKLLIYDTSDLASGVPSRFSGSGSGTEFTLTISGVESADAATYYCQQGYRHTNVDNPFGGGTGVVVK
11 | 3.13 | 379 | 1.08 | 0.128 | P018.S.06.A.C06 (antibody, V domains shown, V regions on human Ig constant parts; also called AB27_102) VH: QQQLEESGGGLVKPGGTLTLPCKASGFTISSDYDMCWVRQAPGKGLEWITCILGGSGGSTWYANWAKGRFTISQSSSTTVTLQMTSLTDADTATYFCTRASGFTYFELWGPGTLVTVSS VL: AQVLTQTPSSVSAAVGGTVTINCQASQSVYNNKNLAWYQQKPGQPPKLLIYYASTLASGVSSRFKGSGSGTQFTLTISDVQSDDAATYYCQGEFSCSSSDCFAFGGGTEVVVK
12 | 3.13 | 175 | 2.16 | 1.78 | P018.S.10.A.A04 (antibody, V domains shown, V regions on human Ig constant parts; also called AB27_164) VH: QSVEESGGRLVTPGTPLTLTCTVSGIDLSSNVMTWVRQAPGKGLEWIGYIYASATTYYATWAKGRFTISKTSTTVDLKMTSPTTEDTATYFCARERLASRGDYSDLWGQGTLVTVSS VL: AYDMTQTPASVEAAVGGTVTIKCQASESIGDLLAWYQQKPGQPPKLLIYDASDLASGVPSRFKGSGSGTEFTLTISGVESADAATYYCQQGYTTTSNVDNIFGGGTEVVVK
13 | 3.41 | 387 | 1.86 | 0.576 | P018.S.06.A.A03 (antibody, V domains shown, V regions on human Ig constant parts; also called AB27_96) VH: QSVEESGGRLVTPGTPLTLTCTVSGFSLSSNAMTWVRQAPGKGLEWIGFINTGSSTYYASWAKGRFTISKTSTTVDLKITSPTTEDTATYFCARDADDSRGYYWGLWGQGTLVTVSS VL: AYDMTQTPASVPAAVGGTVTIKCQASEDIYSLLAWYQQKPGQPPKLLIYDASDLASGVPSRFRGSGSGTDYTLTISGVESADAATYYCQQGYTTYTTVDNIFGGGTEVVVK
14 | 3.44 | 379 | 1.03 | 0.408 | P018.S.07.A.A05 (antibody, V domains shown, V regions on human Ig constant parts; also called AB27_114) VH: QEHLEESGGDLVKPGASLTLTCKASGFDLSINVMCWVRQAPGKGPEWIVCIDNGDGSTYYASWVNGRFTISKTSSTTVTLQMTSLTAADTATYFCARPGTFTYGGNTYPGSFVLWGPGTLVTVSS VL: AFELTQTPSSVEAAVGGTVTINCQASQSISNALAWYQQKPGQPPKLLIYTASNLASGVPSRFKGSGSGTQFTLTISDLESADAATYYCQNYYVNIIGIGFGGGTEVVVK
15 | 3.45 | 300 | 1.65 | 0.302 | P018.S.07.A.C04 (antibody, V domains shown, V regions on human Ig constant parts; also called AB27_120) VH: QEQLVESGGGLVQPEGSLTLTCTASGFSFSSRFWICWVRQAPGKGLEWIACIYGGSTSATYDASWAKGRFTISKTSSTTVTLQMTSLTAADTATYFCTRLPTYDAYVFNLWGPGTLVTVSS VL: AIVMTQTPSSKSVPVGATATINCQASESVFSNNYLSWYQQKPGRSPKLLIYEASKLASGVPSRFSGSGSGTQFTLTISDVVSDDAATYYCGGYKSNNVDGYAFGGGTEVVVK
16 | 3.47 | 283 | 1.22 | 0.107 | P018.S.07.A.H02 (antibody, V domains shown, V regions on human Ig constant parts; also called AB27_131) VH: QEQLVESGGGLVQPEGSLTLTCKASGFDFSSDAMCWVRQAPGKGLEWIACIYVGSVGSSWYASWAKGRFTISKSSSTTVTLQVTSLTAADTATYFCARGENIAYFTFWGPGTLVTVSS VL: DIMMTQTPASVSAAVGGTVTIKCQASQSINSWLSWYQQKPGQPPKLLIYKASTLASGVPSRFEGSGSGTEFTLTISDLESADAATYYCQGYYYYSSSNFASNAFGGGTEVVVK
